In the assay the target is T1, 3×Flag-PRMT5 (UniProt O14744 1-637).
T1 construct: Protein arginine methyltransferase 5 (PRMT5), from plasmid pCDH-CMV-3×Flag-PRMT5
The assay is described as follows: pull-down; GST pull-down as described in ref. 23; GST-tagged protein expressed in BL21; Flag-tagged protein purified from HEK-293T by Flag affinity gel and 3× FLAG peptide elution; the paper calls the binding direct. The conditions noted are these: both partners purified.

T1 sequence (O14744 whole entry): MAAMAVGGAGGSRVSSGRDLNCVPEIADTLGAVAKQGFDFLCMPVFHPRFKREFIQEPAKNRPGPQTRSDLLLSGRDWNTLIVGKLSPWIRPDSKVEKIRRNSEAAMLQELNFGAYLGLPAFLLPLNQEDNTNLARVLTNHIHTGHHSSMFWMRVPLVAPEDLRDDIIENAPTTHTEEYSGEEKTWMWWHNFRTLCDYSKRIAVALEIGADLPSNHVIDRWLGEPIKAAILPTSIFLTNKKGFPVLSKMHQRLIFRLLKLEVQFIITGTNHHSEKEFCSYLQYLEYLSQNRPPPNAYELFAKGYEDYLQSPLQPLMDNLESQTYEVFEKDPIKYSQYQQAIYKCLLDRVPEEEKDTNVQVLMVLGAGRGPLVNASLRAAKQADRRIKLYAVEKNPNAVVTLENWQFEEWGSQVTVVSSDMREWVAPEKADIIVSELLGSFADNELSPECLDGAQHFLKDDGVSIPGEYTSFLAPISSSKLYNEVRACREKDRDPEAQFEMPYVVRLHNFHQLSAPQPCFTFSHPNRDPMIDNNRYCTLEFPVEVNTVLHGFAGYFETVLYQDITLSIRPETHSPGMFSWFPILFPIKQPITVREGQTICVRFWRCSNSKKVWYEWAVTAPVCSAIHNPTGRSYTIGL

B1: GST-CRIP1, full-length (FL), wild type (natural protein, UniProt P50238 1-77, looked up)
chain: MPKCPKCNKEVYFAERVTSLGKDWHRPCLKCEKCGKTLTSGGHAEHEGKPYCNHPCYAAMFGPKGFGRGGAESHTFK
notes: Cysteine-rich intestinal protein 1 (CRIP1), full length, in pGEX-6P-1; also called GST-CRIP1 WT; source: E. coli BL21, induced with 1 mM IPTG
As for B1, the binding result is listed as “binds”.

The record behind these values is article PMC12509902, “PRMT1/PRMT5-Mediated Differential Arginine Methylation of CRIP1 Promotes the Recurrence of Small Cell Lung Cancer after Chemotherapy” (International Journal of Biological Sciences, 2025).
